Data on five molecules can be found in US20210180049A1 (CHUGAI SEIYAKU KABUSHIKI KAISHA, priority 2013, published 2021).

Data set [1] addresses T1, human IL-6 receptor (hIL-6R) (Homo sapiens, UniProt P08887).
T1 sequence (P08887 20-357 limits assumed): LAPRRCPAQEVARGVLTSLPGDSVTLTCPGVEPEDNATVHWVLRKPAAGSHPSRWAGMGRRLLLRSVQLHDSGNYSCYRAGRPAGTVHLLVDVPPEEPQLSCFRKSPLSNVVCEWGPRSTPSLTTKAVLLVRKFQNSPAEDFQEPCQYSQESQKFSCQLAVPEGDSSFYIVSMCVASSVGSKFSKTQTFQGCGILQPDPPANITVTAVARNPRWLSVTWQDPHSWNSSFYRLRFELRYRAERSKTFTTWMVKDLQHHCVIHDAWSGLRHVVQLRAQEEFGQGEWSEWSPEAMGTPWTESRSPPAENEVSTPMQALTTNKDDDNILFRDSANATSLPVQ
Kind of data set: IgG ELISA for hIL-6R binding under small molecule conditions of Table 12. The following applies: IgG 2.5 μg/mL. The protocol:
Three types of obtained antibodies 6RNMSC1-2_F02, 6RNMSC1-3_G02, and GC413 were subjected to ELISA under the nine conditions shown in Table 12. The antigen used was biotin-labeled hIL-6R.
First, a StreptaWell 96 microtiter plate (Roche) was coated with 100 μL of PBS containing biotin-labeled hIL-6R at room temperature for one hour or longer. […] 100 μL of each of the purified IgGs prepared at 2.5 μg/mL using Sample Buffer containing small molecules at the final concentrations shown in Table 12 were added to each well, and the plate was let still at room temperature for one hour to allow each IgG to bind to biotin-labeled hIL-6R present in each well. After washing with Wash Buffer containing small molecules at the final concentrations shown in Table 12, HRP-conjugated anti-human IgG antibody (BIOSOURCE) diluted with Sample Buffer containing the same small molecules was added to each well and the plate was incubated for one hour. After washing with Wash Buffer containing respective small molecules, the chromogenic reaction of TMB single solution (ZYMED) added in each well was terminated by adding sulfuric acid. Then, the color development was measured by absorbance at 450 nm.
(An ELISA detects its analyte on a solid surface through an enzyme-linked reagent.)

Data set [2] deals with T1, human IL-6 receptor (hIL-6R). Kind of data set: phage ELISA for hIL-6R binding in the presence/absence of small molecule cocktail (SC). The following applies: absorbance at 450 nm. How it is done:
From a single colony of E. coli obtained in (6-1), a phage-containing culture supernatant was collected according to a conventional method (Methods Mol. Biol. (2002) 178, 133-145). […] A StreptaWell 96 microtiter plate (Roche) was coated overnight with 100 μL of TBS containing biotin-labeled hIL-6R. […] After removing 2% skim milk/TBS, purified phages were added to each well of the plate, and the plate was left still at room temperature for one hour to allow antibody-presenting phages to bind to biotin-labeled hIL-6R present in each well in the presence/absence of SC. Each well was washed with TBST or SC/TBST, and HRP-conjugated anti-M13 antibody (Amersham Pharmacia Biotech) diluted with TBS or SC/TBS was added thereto, and the plate was incubated for one hour. After washing with TBST or SC/TBST, the chromogenic reaction of TMB single solution (ZYMED) added in each well was terminated by adding sulfuric acid. Then, the color development was measured by absorbance at 450 nm.

A short description of data set [3]: SPR (Biacore T200) binding of humanized SMB0002 and its variants to AMP. The following applies: Biacore T200, 25° C.; read-out: KD of humanized SMB0002 toward AMP. How it is done:
(§1) Binding of humanized SMB0002 to adenosine and AMP was measured and analyzed by a method using Biacore T200 (GE Healthcare). Protein A (Invitrogen) immobilized in an appropriate amount onto a Sensor chip CM5 (GE Healthcare) by the amine coupling method was allowed to capture the antibody of interest, and the interaction with the antigen adenosine, AMP, ADP, or ATP was observed. The running buffer used was 50 mM Tris-HCl, 150 mM NaCl, 0.02% (w/v) Tween 20, pH 7.6, for adenosine and AMP, and 50 mM Tris-HCl, 150 mM NaCl, 0.02% (w/v) Tween 20, 2 mM MgCl2, pH 7.6, for ADP and ATP. All measurements were carried out at 25° C. The antigens were diluted with the running buffer.
(§2) Then, the running buffer was run at a flow rate of 30 μL/min for five minutes, and dissociation of the antigens from the antibody was observed. Next, 10 mM glycine-HCl, pH 1.5, was added at a flow rate of 30 μL/min for 30 seconds to regenerate the sensor chip. Kinetic parameters such as the association rate constant ka (1/Ms) and the dissociation rate constant kd (l/s) were calculated based on the sensorgrams obtained by the measurements. The dissociation constant KD (M) was calculated from these constants. Each parameter was calculated using Biacore T200 Evaluation Software (GE Healthcare).
(§3) As a result of the measurements, the affinity of each variant toward adenosine and AMP was calculated as KD value. […]
(SPR reads the build-up and loss of mass on a sensor chip optically.)

A short description of data set [4]: SPR (Biacore T200) binding of humanized SMB0002 to ADP. Particulars: Biacore T200, 25° C., 2 mM MgCl2; read-out: KD of humanized SMB0002 toward ADP. The protocol: as §1, §2
The nature of data set [5]: SPR (Biacore T200) binding of humanized SMB0002 and its variants to adenosine. Particulars: Biacore T200, 25° C.; read-out: KD of humanized SMB0002 toward adenosine. How it is done:
as §1, §2, §3

A short description of data set [6]: SPR (Biacore T200) binding of humanized SMB0002 to ATP. The following applies: Biacore T200, 25° C., 2 mM MgCl2; read-out: KD of humanized SMB0002 toward ATP. The protocol:
as §1, §2

Data set [7] in a line: competitive phage ELISA with ATP. Type of data set: binding. Particulars: ATP from equal amount up to 10000 times that of the antigen. How it is done: ATNLSA1-4_D12 and PF1 were each diluted with TBS and subjected to ELISA by the following procedure.
A StreptaWell 96 microtiter plate (Roche) was coated at room temperature for one hour with 100 μl of TBS containing biotin-labeled antigens (a mixture of 5′-adenosine-PEG-biotin and ATP-PEG-biotin). After the antigens were removed by washing each well of the plate with TBST, the wells were blocked with 250 μl of 2% skim milk/TBS for one hour or more. 2% skim milk/TBS was removed, and then the prepared, purified phages were added to each well. The plate was allowed to stand at room temperature for one hour to allow binding of the antibody-displaying phages to the antigens in each well. […] For the competition of the immobilized antigen with ATP, the plate was allowed to stand at room temperature for one hour. Then, after TBST wash, an HRP-conjugated anti-M13 antibody (Amersham Pharmacia Biotech) diluted with TBS was added to each well. The plate was incubated for one hour. Following TBST wash, the TMB single solution (ZYMED) was added to each well. The chromogenic reaction in the solution of each well was terminated by adding sulfuric acid. Then, the developed color was assessed by measuring absorbance at 450 nm.

Data set [8] in a line: SPR (Biacore T200) binding of 6RNMSC1-2_F02 and variants to kynurenine. Particulars: for Kd / ka for kynurenine / kd for kynurenine: Biacore T200, 15° C., 5% DMSO. How it is done:
An appropriate amount of protein A (Invitrogen) was immobilized onto Sensor chip CM4 (GE Healthcare) by the amine coupling method. The antibody of interest was captured thereon, and the antigen kynurenine and derivatives thereof were allowed to interact. The running buffer used was 50 mmol/L Tris-HCl, 150 mmol/L NaCl, 0.02% (w/v) Tween 20, 5% DMSO, pH 7.6. All measurements were carried out at 15° C. The antigens were diluted with the running buffer.
Then, the running buffer was run at a flow rate of 30 μL/min for 60 seconds to observe the dissociation of antigens from the antibody. Kinetic parameters, the association rate constant ka (1/Ms) and the dissociation rate constant kd (l/s), were calculated based on the sensorgrams obtained by the measurements. The dissociation constant KD (M) was calculated from these constants. Each parameter was calculated using Biacore T200 Evaluation Software (GE Healthcare).
(§4) Meanwhile, the type of sensor chip immobilized with Protein A was changed to Sensor chip Series S CM3 (GE Healthcare) to measure some of the variants. When kynurenine dissociation was too fast to determine the dissociation rate constant, a dissociation constant KD (M) was calculated by analysis of equilibrium values based on the degree of binding response during the interaction with each antigen (association phase). In this case also, Biacore T200 Evaluation Software (GE Healthcare) was used to calculate the parameters.
as §4
When kynurenine dissociation was too fast to determine the dissociation rate constant, the dissociation constant KD (M) was calculated by analysis of equilibrium values based on the degree of binding response when it is interacted with each antigen (association phase). Also in this case, the Biacore T200 Evaluation Software (GE Healthcare) was used to calculate parameters. […] Each variant and its parental antibody F02h011/F021003 were compared in terms of the KD value for kynurenine.
When kynurenine dissociation was too fast to determine the dissociation rate constant, the dissociation constant KD (M) was calculated by analyzing equilibrium values based on the degree of binding response when it is interacted with each antigen (association phase). Also in this case, the Biacore T200 Evaluation Software (GE Healthcare) was used to calculate parameters. […] Each variant and its parental sequence F02h011/F021003 were compared in terms of the KD value for kynurenine.

Protocol for Tm measurement by DSC: Measurement by DSC was carried out by a method known to those skilled in the art.
DSC measurement was carried out by a method known to those skilled in the art.

B1: 6RNMSC1-3_G02: antibody binding hIL-6R in the presence of ATP; heavy chain SEQ ID NO: 34, light chain SEQ ID NO: 35 (antibody, listed as Homo sapiens, V domains shown)
VH: EVQLVQSGGDLVKPGGSLRLSCAASGFTFSNYAMHWVRQAPGKGLEWVAVVSYDGSNKYYADSVKGRFTISRDNSKNTLYLQMNSLRAEDTAVYYCARLVPSSGYPGRFDPWGQGTLVTVSS
VL: NIQMTQSPSSLSASVGDRVTITCRASQSISSSLNWYQQIPGKAPKLLIYAASSLQSGVPSRFSGSGSGTDFTLTISSLQPEDFASYYCQQSYSAWTFGQGTKVEIK
With B1, the “absorbance under condition 9 (no small molecule) compared to condition 8 (cocktail of all small molecules)” value in data set [1] (absorbance at 450 nm) is “significantly lower”. Moreover, the “small molecule in whose presence the antibody binds hIL-6R” value in data set [1] (conditions 1-9 of Table 12, absorbance at 450 nm) is “binds to the antigen hIL-6R in the presence of ATP”. The “binding activity to the antigen hIL-6R in the presence of a small molecule mixture” value in data set [2] was “having binding activity”.

B2: humanized SMB0002: heavy chain variable region SEQ ID NO: 85; light chain variable region SEQ ID NO: 86 (antibody, V domains shown)
VH: QVQLVQSGAEVKKPGASVKVSCKVSGIDLTNYAMGWVRQPPGKGLEWIGIIGADSSTWYPSWVKGRFTISKDTSKNQVVLTMTNMDPVDTATYYCARGRFVGYTNAFDPWGQGTLVTVSS
VL: DIQLTQSPSSLSASVGDRVTITCQSSQSVWNNNYLSWYQQKPGQPPKLLIYDASTLASGVPSRFSGSGSGTDFTLTINSLEAEDAATYYCHGSYANSGWYDNAFGGGTEVVVK
What is called Kd is the free concentration of one partner at which half of the binding sites on the other are occupied at equilibrium, for simple one-to-one binding. On to B2, for which the Kd in data set [3] is 35 µM; in [4], 79 µM; in data set [5] it was 0.0075 µM; in data set [6], 140 µM.

B3: PF1: hIL-6R-binding clone prepared as a negative control; heavy chain SEQ ID NO: 50, light chain SEQ ID NO: 51 (antibody, V domains shown)
VH: QVQLQESGPGLVKPSETLSLTCAVSGYSISDDHAWSWVRQPPGEGLEWIGYISYSGITNYNPSLKGRVTISRDTSKNQFSLKLSSVTAADTAAYYCARVLARITAMDYWGEGTLVTVSS
VL: DIQMTQSPSSLSASVGDSVTITCQASQDISSYLNWYQQKPGKAPELLIYYGSELHSGVPSRFSGSGSGTDFTFTISSLEAEDAATYYCGQGNRLPYTFGQGTKVEIE
For the molecule B3, the “binding to biotin-labeled antigen with ATP as competitor” value in data set [7] is “not detected regardless of the ATP concentration”.

B4: F02h011/F021003: 6RNMSC1-2_F02 with framework restored to germline; variable regions SEQ ID NO: 95 and 96 (antibody, V domains shown)
VH: QVQLVQSGAEVKKPGSSVKVSCKASGGTFSSYAISWVRQAPGQGLEWMGGIIPIFGTANYAQKFQGRVTITADESTSTAYMELSSLRSEDTAVYYCARDAPVVARPRGAFDIWGQGTLVTVSS
VL: DIVMTQSPLSLPVTPGEPASISCRSSQSLVHSDGNTYLSWYLQKPGQSPQLLIYEISNRFSGVPDRFSGSGSGTDFTLKISRVEAEDVGVYYCMQATQFPRTFGQGTKVEIK
What is called Tm is the temperature at which the thermal transition is half complete. Take B4: the midpoint of thermal melting (Tm) in “Tm measurement by DSC” worked out at 85.2 °C. Besides, the “kynurenine binding (in words)” value in [8] (Biacore) was “retain kynurenine binding”. In data set [8], this molecule had an equilibrium dissociation constant (Kd) of 110 µM, a ka for kynurenine of 3664 M⁻¹ s⁻¹ and a kd for kynurenine of 0.40 L/s.

B5: F02h011/F021098: F02h011/F021003 with Lch_Ser56Tyr; variable regions SEQ ID NO: 95 and 97 (antibody, V domains shown)
VH: QVQLVQSGAEVKKPGSSVKVSCKASGGTFSSYAISWVRQAPGQGLEWMGGIIPIFGTANYAQKFQGRVTITADESTSTAYMELSSLRSEDTAVYYCARDAPVVARPRGAFDIWGQGTLVTVSS
VL: DIVMTQSPLSLPVTPGEPASISCRSSQSLVHSDGNTYLSWYLQKPGQSPQLLIYEISNRFYGVPDRFSGSGSGTDFTLKISRVEAEDVGVYYCMQATQFPRTFGQGTKVEIK
In data set [8], B5 yielded a dissociation constant (Kd) of 72 µM, a ka for kynurenine of 3686 M⁻¹ s⁻¹ and a kd for kynurenine of 0.26 L/s.
